Broadly, the Ki is the dissociation constant of the complex between target and ligand, obtained from inhibition or displacement. What is called Kd is the constant that tells how readily two partners part at equilibrium. A lower Kd goes with higher affinity.

Data set [1] concerns the target T1, PTP1B (Homo sapiens, UniProt P18031 P18031:1-321).
T1 sequence: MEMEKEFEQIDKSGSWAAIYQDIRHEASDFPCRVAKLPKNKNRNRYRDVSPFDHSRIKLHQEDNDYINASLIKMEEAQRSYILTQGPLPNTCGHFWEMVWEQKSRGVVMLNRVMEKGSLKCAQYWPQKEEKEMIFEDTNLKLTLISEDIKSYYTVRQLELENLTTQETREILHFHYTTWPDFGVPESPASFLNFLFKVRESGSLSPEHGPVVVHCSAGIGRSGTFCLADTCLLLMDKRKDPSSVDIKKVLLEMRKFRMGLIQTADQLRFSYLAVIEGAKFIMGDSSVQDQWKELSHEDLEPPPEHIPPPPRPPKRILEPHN
The data set is described as follows: inhibition; 125 mM NaCl, DiFMUP. The conditions noted are these: tags: N-terminal His6; R&D Systems 1366-PT-050; hairpin. How it is done:
(§1) To further refine the estimate of Kᵢ, an assay was run at a fixed DiFMUP concentration of 20 μM with the C13M21 and the full-length C13 nucleic acid ligand, each premixed with the PTP1B at […] in the 125 mM NaCl buffer. […] Nonlinear fitting gives an estimate of the IC₅₀ of […]. Based on a Kₘ of 25 μM, and assuming competitive inhibition, this gives a Kᵢ of 45 nM for C13M21 and a Kᵢ of 7 nM for the full-length nucleic acid ligand at 125 mM NaCl concentration.

Data set [2] concerns the target T1, PTP1B. The data set is described as follows: inhibition; 20 mM NaCl, 5 uM DiFMUP. The conditions noted are these: tags: N-terminal His6; R&D Systems 1366-PT-050; hairpin.
Data set [3] deals with T1, PTP1B. The data set is described as follows: inhibition; 20 mM NaCl, 5 uM DiFMUP; p151 quotes about 600 pM. The conditions noted are these: tags: N-terminal His6; R&D Systems 1366-PT-050; hairpin.
Data set [4] deals with T2, PTP1B catalytic domain (321 residues), GST fusion (Homo sapiens, UniProt P18031 P18031:1-321).
T2 sequence: T1 sequence
The data set is described as follows: filter; 20 mM HEPES pH 7.2, 5 mM MgCl2, 125 mM NaCl, room temperature. The conditions noted are these: tags: GST; hairpin. How it is done: Binding assays were carried out in triplicate at 12 different PTP1B concentrations using a Schleicher & Schuell Milliblot™ apparatus with 0.45 μm BioRad TransBlot® nitrocellulose layered on top of a Hybond™-N+nylon transfer membrane. Radiolabelled RNA at 100-500 pM was heated to 75° C. for 3 minutes then cooled to room temperature before mixing with a 2× serial dilution of the target and also a no-target control. 150 μL of the mixtures at each of the 12 enzyme concentrations were pre-incubated at room temperature for 60 minutes before applying to the pre-washed membrane to allow the RNA complex to reach equilibrium (Waley, S. G. (1993) The Biochemical journal 294 Pt 1, 195-200). Following addition of 40 μL per well of each mixture to three separate wells of the Milliblot™ apparatus, the filter was washed 3 times. The dilutions and all washes used the binding buffer described above. Activity of the filters was measured using a FujiFilm BAS-1800II phosphorimager and relative density used to estimate the fraction of radiolabelled RNA retained on the nitrocellulose and nylon membranes.
A binding assay with a concentration of 2 nM of the radiolabelled C13M21 nucleic acid ligand against PTP1B-GST was performed with the protein concentration ranging from 1 nM to 512 nM in a 2:1 serial dilution. […]

The target of data set [5] is T1, PTP1B. The data set is described as follows: inhibition; 125 mM NaCl, DiFMUP, competitive; 20 nM from Lineweaver-Burk fit. The conditions noted are these: tags: N-terminal His6; R&D Systems 1366-PT-050; hairpin. How it is done:
In parallel with a no-RNA control, the activity in the presence of 30 nM C13M21 was measured in duplicate for varying concentrations of DiFMUP. […] Fitting of the data in the presence of C13M21 gave a Kₘ*of 63 μM, which equates to a Kᵢ of 20 nM. The fitted Vₘₐₓ in the presence of the inhibitor was equal to or slightly greater than the no-RNA Vₘₐₓ, indicating the presence of competitive inhibition.
as §1

Data set [6] addresses T1, PTP1B. The data set is described as follows: inhibition; parent about 35 nM. The following applies: tags: N-terminal His6; R&D Systems 1366-PT-050. How it is done:
Several single-base modifications of the M21 nucleic acid ligand were also tested to determine whether the changes would affect the level of inhibition. With reference to the postulated secondary structure shown in FIG. 9, the sequence at each position on the unpaired regions was modified at positions 31 through 37 and positions 42 through 46. […] From this, it appears that the other nucleotides are either critical in the contact with the PTP1B molecule or in shaping the nucleic acid ligand into a conformation that binds with the PTP1B.

Where only a bound is given, the exact number is not on record here.

B1: C13 (ssRNA)
RNA: GGGAAUGGAUCCACAUCUACGAAUUCUGUGAUCAAUUUGGCAAUCCGCCACACGAGUUCACUGCAGACUUGACGAAGCUU
As to B1, the Ki in the data set with PTP1B [1] was 7 nM; with PTP1B [2] it was less than 0.1 nM.
GGGAAUUCUGUGAUCAAUUUGGCAAUCCGCCACACGAGUUC (ssRNA) [C13M21]: the Ki with PTP1B [3] was 0.3 nM; with PTP1B [5], 45 nM. In addition, the Kd in data set [4] turned out to be 28 nM.
Consider GGGAAUUCUGUGAUCAAUUUGGCAAUCCGCCACACUAGUUC (ssRNA, [36]) [C13M21 G54U], for which the inhibition constant (Ki) in the data set with PTP1B [6] is 48 nM.
The same measure, in the same setting: the value for GGGAAUUCUGUGAUUAAUUUGGCAAUCCGCCACACUAGUUC (ssRNA, [15,36]) [C9 shortened to M21 range] was roughly 250 nM.
